Target: T1, CD3 epsilon homodimer protein (UniProt P07766 23-126)
T1 construct: also called CD3 (CD3 epsilon)
Test: SPR Biacore T200, CD3 epsilon homodimer on chip, antibody as analyte;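 note: homodimer amine-coupled to a CM4 sensor chip, run at 25 °C in HBS-EP+ buffer, with kinetic parameters derived in Biacore T200 Evaluation Software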

T1 sequence (P07766 23-126): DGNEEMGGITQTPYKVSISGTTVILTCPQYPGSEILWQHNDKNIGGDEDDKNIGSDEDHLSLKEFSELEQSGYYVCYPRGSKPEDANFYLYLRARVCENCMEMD

Row | KD ratio (KD of CE115HA000 / KD of altered form) | Binder
1 | 0.62 | CE115HA000 H chain altered form K52bQ (antibody, human IgG1, kappa, L234A L235A, N297A, name in Kabat numbering, one-arm antibody) heavy: QVQLVESGGGVVQPGRSLRLSCAASGFTFSNAWMHWVRQAPGKGLEWVAQIKAQSNNYATYYAESVKGRFTISRDDSKNSLYLQMNSLKTEDTAVYYCRYVHYGAYYGVDAWGQGTTVTVSSASTKGPSVFPLAPSSKSTSGGTAALGCLVKDYFPEPVTVSWNSGALTSGVHTFPAVLQSSGLYSLSSVVTVPSSSLGTQTYICNVNHKPSNTKVDKKVEPKSCDKTHTCPPCPAPEAAGGPSVFLFPPKPKDTLMISRTPEVTCVVVDVSHEDPEVKFNWYVDGVEVHNAKTKPREEQYASTYRVVSVLTVLHQDWLNGKEYKCKVSNKALPAPIEKTISKAKGQPREPQVYTLPPSRCELTKNQVSLSCAVKGFYPSDIAVEWESNGQPENNYKTTPPVLDSDGSFFLVSKLTVDKSRWQQGNVFSCSVMHEALHNHYTQKSLSLSPDYKDDDDK EPKSSDKTHTCPPCPAPELLGGPSVFLFPPKPKDTLMISRTPEVTCVVVDVSHEDPEVKFNWYVDGVEVHNAKTKPREEQYNSTYRVVSVLTVLHQDWLNGKEYKCKVSNKALPAPIEKTISKAKGQPREPQVCTLPPSRDELTKNQVSLWCLVKGFYPSDIAVEWESNGQPENNYKTTPPVLDSDGSFFLYSKLTVDKSRWQQGNVFSCSVMHEALHNRYTQKSLSLSP light: DIVMTQSPLSLPVTPGEPASISCRSSQSLVHSNRNTYLHWYQQKPGQAPRLLIYKVSNRFSGVPDRFSGSGSGTDFTLKISRVEAEDVGVYYCGQGTQVPYTFGQGTKLEIKRTVAAPSVFIFPPSDEQLKSGTASVVCLLNNFYPREAKVQWKVDNALQSGNSQESVTEQDSKDSTYSLSSTLTLSKADYEKHKVYACEVTHQGLSSPVTKSFNRGEC
2 | 0.91 | CE115HA000 H chain altered form K52bR (antibody, human IgG1, kappa, L234A L235A, N297A, name in Kabat numbering, one-arm antibody) heavy: QVQLVESGGGVVQPGRSLRLSCAASGFTFSNAWMHWVRQAPGKGLEWVAQIKARSNNYATYYAESVKGRFTISRDDSKNSLYLQMNSLKTEDTAVYYCRYVHYGAYYGVDAWGQGTTVTVSSASTKGPSVFPLAPSSKSTSGGTAALGCLVKDYFPEPVTVSWNSGALTSGVHTFPAVLQSSGLYSLSSVVTVPSSSLGTQTYICNVNHKPSNTKVDKKVEPKSCDKTHTCPPCPAPEAAGGPSVFLFPPKPKDTLMISRTPEVTCVVVDVSHEDPEVKFNWYVDGVEVHNAKTKPREEQYASTYRVVSVLTVLHQDWLNGKEYKCKVSNKALPAPIEKTISKAKGQPREPQVYTLPPSRCELTKNQVSLSCAVKGFYPSDIAVEWESNGQPENNYKTTPPVLDSDGSFFLVSKLTVDKSRWQQGNVFSCSVMHEALHNHYTQKSLSLSPDYKDDDDK EPKSSDKTHTCPPCPAPELLGGPSVFLFPPKPKDTLMISRTPEVTCVVVDVSHEDPEVKFNWYVDGVEVHNAKTKPREEQYNSTYRVVSVLTVLHQDWLNGKEYKCKVSNKALPAPIEKTISKAKGQPREPQVCTLPPSRDELTKNQVSLWCLVKGFYPSDIAVEWESNGQPENNYKTTPPVLDSDGSFFLYSKLTVDKSRWQQGNVFSCSVMHEALHNRYTQKSLSLSP light: DIVMTQSPLSLPVTPGEPASISCRSSQSLVHSNRNTYLHWYQQKPGQAPRLLIYKVSNRFSGVPDRFSGSGSGTDFTLKISRVEAEDVGVYYCGQGTQVPYTFGQGTKLEIKRTVAAPSVFIFPPSDEQLKSGTASVVCLLNNFYPREAKVQWKVDNALQSGNSQESVTEQDSKDSTYSLSSTLTLSKADYEKHKVYACEVTHQGLSSPVTKSFNRGEC
3 | 1.14 | CE115HA000 H chain altered form N31D (antibody, human IgG1, kappa, L234A L235A, N297A, name in Kabat numbering, one-arm antibody) heavy: QVQLVESGGGVVQPGRSLRLSCAASGFTFSDAWMHWVRQAPGKGLEWVAQIKAKSNNYATYYAESVKGRFTISRDDSKNSLYLQMNSLKTEDTAVYYCRYVHYGAYYGVDAWGQGTTVTVSSASTKGPSVFPLAPSSKSTSGGTAALGCLVKDYFPEPVTVSWNSGALTSGVHTFPAVLQSSGLYSLSSVVTVPSSSLGTQTYICNVNHKPSNTKVDKKVEPKSCDKTHTCPPCPAPEAAGGPSVFLFPPKPKDTLMISRTPEVTCVVVDVSHEDPEVKFNWYVDGVEVHNAKTKPREEQYASTYRVVSVLTVLHQDWLNGKEYKCKVSNKALPAPIEKTISKAKGQPREPQVYTLPPSRCELTKNQVSLSCAVKGFYPSDIAVEWESNGQPENNYKTTPPVLDSDGSFFLVSKLTVDKSRWQQGNVFSCSVMHEALHNHYTQKSLSLSPDYKDDDDK EPKSSDKTHTCPPCPAPELLGGPSVFLFPPKPKDTLMISRTPEVTCVVVDVSHEDPEVKFNWYVDGVEVHNAKTKPREEQYNSTYRVVSVLTVLHQDWLNGKEYKCKVSNKALPAPIEKTISKAKGQPREPQVCTLPPSRDELTKNQVSLWCLVKGFYPSDIAVEWESNGQPENNYKTTPPVLDSDGSFFLYSKLTVDKSRWQQGNVFSCSVMHEALHNRYTQKSLSLSP light: DIVMTQSPLSLPVTPGEPASISCRSSQSLVHSNRNTYLHWYQQKPGQAPRLLIYKVSNRFSGVPDRFSGSGSGTDFTLKISRVEAEDVGVYYCGQGTQVPYTFGQGTKLEIKRTVAAPSVFIFPPSDEQLKSGTASVVCLLNNFYPREAKVQWKVDNALQSGNSQESVTEQDSKDSTYSLSSTLTLSKADYEKHKVYACEVTHQGLSSPVTKSFNRGEC
4 | 0.58 | CE115HA000 H chain altered form K52bS (antibody, human IgG1, kappa, L234A L235A, N297A, name in Kabat numbering, one-arm antibody) heavy: QVQLVESGGGVVQPGRSLRLSCAASGFTFSNAWMHWVRQAPGKGLEWVAQIKASSNNYATYYAESVKGRFTISRDDSKNSLYLQMNSLKTEDTAVYYCRYVHYGAYYGVDAWGQGTTVTVSSASTKGPSVFPLAPSSKSTSGGTAALGCLVKDYFPEPVTVSWNSGALTSGVHTFPAVLQSSGLYSLSSVVTVPSSSLGTQTYICNVNHKPSNTKVDKKVEPKSCDKTHTCPPCPAPEAAGGPSVFLFPPKPKDTLMISRTPEVTCVVVDVSHEDPEVKFNWYVDGVEVHNAKTKPREEQYASTYRVVSVLTVLHQDWLNGKEYKCKVSNKALPAPIEKTISKAKGQPREPQVYTLPPSRCELTKNQVSLSCAVKGFYPSDIAVEWESNGQPENNYKTTPPVLDSDGSFFLVSKLTVDKSRWQQGNVFSCSVMHEALHNHYTQKSLSLSPDYKDDDDK EPKSSDKTHTCPPCPAPELLGGPSVFLFPPKPKDTLMISRTPEVTCVVVDVSHEDPEVKFNWYVDGVEVHNAKTKPREEQYNSTYRVVSVLTVLHQDWLNGKEYKCKVSNKALPAPIEKTISKAKGQPREPQVCTLPPSRDELTKNQVSLWCLVKGFYPSDIAVEWESNGQPENNYKTTPPVLDSDGSFFLYSKLTVDKSRWQQGNVFSCSVMHEALHNRYTQKSLSLSP light: DIVMTQSPLSLPVTPGEPASISCRSSQSLVHSNRNTYLHWYQQKPGQAPRLLIYKVSNRFSGVPDRFSGSGSGTDFTLKISRVEAEDVGVYYCGQGTQVPYTFGQGTKLEIKRTVAAPSVFIFPPSDEQLKSGTASVVCLLNNFYPREAKVQWKVDNALQSGNSQESVTEQDSKDSTYSLSSTLTLSKADYEKHKVYACEVTHQGLSSPVTKSFNRGEC
5 | 0.61 | CE115HA000 H chain altered form K52bY (antibody, human IgG1, kappa, L234A L235A, N297A, name in Kabat numbering, one-arm antibody) heavy: QVQLVESGGGVVQPGRSLRLSCAASGFTFSNAWMHWVRQAPGKGLEWVAQIKAYSNNYATYYAESVKGRFTISRDDSKNSLYLQMNSLKTEDTAVYYCRYVHYGAYYGVDAWGQGTTVTVSSASTKGPSVFPLAPSSKSTSGGTAALGCLVKDYFPEPVTVSWNSGALTSGVHTFPAVLQSSGLYSLSSVVTVPSSSLGTQTYICNVNHKPSNTKVDKKVEPKSCDKTHTCPPCPAPEAAGGPSVFLFPPKPKDTLMISRTPEVTCVVVDVSHEDPEVKFNWYVDGVEVHNAKTKPREEQYASTYRVVSVLTVLHQDWLNGKEYKCKVSNKALPAPIEKTISKAKGQPREPQVYTLPPSRCELTKNQVSLSCAVKGFYPSDIAVEWESNGQPENNYKTTPPVLDSDGSFFLVSKLTVDKSRWQQGNVFSCSVMHEALHNHYTQKSLSLSPDYKDDDDK EPKSSDKTHTCPPCPAPELLGGPSVFLFPPKPKDTLMISRTPEVTCVVVDVSHEDPEVKFNWYVDGVEVHNAKTKPREEQYNSTYRVVSVLTVLHQDWLNGKEYKCKVSNKALPAPIEKTISKAKGQPREPQVCTLPPSRDELTKNQVSLWCLVKGFYPSDIAVEWESNGQPENNYKTTPPVLDSDGSFFLYSKLTVDKSRWQQGNVFSCSVMHEALHNRYTQKSLSLSP light: DIVMTQSPLSLPVTPGEPASISCRSSQSLVHSNRNTYLHWYQQKPGQAPRLLIYKVSNRFSGVPDRFSGSGSGTDFTLKISRVEAEDVGVYYCGQGTQVPYTFGQGTKLEIKRTVAAPSVFIFPPSDEQLKSGTASVVCLLNNFYPREAKVQWKVDNALQSGNSQESVTEQDSKDSTYSLSSTLTLSKADYEKHKVYACEVTHQGLSSPVTKSFNRGEC
6 | 0.96 | CE115HA000 H chain altered form N31A (antibody, human IgG1, kappa, L234A L235A, N297A, name in Kabat numbering, one-arm antibody) heavy: QVQLVESGGGVVQPGRSLRLSCAASGFTFSAAWMHWVRQAPGKGLEWVAQIKAKSNNYATYYAESVKGRFTISRDDSKNSLYLQMNSLKTEDTAVYYCRYVHYGAYYGVDAWGQGTTVTVSSASTKGPSVFPLAPSSKSTSGGTAALGCLVKDYFPEPVTVSWNSGALTSGVHTFPAVLQSSGLYSLSSVVTVPSSSLGTQTYICNVNHKPSNTKVDKKVEPKSCDKTHTCPPCPAPEAAGGPSVFLFPPKPKDTLMISRTPEVTCVVVDVSHEDPEVKFNWYVDGVEVHNAKTKPREEQYASTYRVVSVLTVLHQDWLNGKEYKCKVSNKALPAPIEKTISKAKGQPREPQVYTLPPSRCELTKNQVSLSCAVKGFYPSDIAVEWESNGQPENNYKTTPPVLDSDGSFFLVSKLTVDKSRWQQGNVFSCSVMHEALHNHYTQKSLSLSPDYKDDDDK EPKSSDKTHTCPPCPAPELLGGPSVFLFPPKPKDTLMISRTPEVTCVVVDVSHEDPEVKFNWYVDGVEVHNAKTKPREEQYNSTYRVVSVLTVLHQDWLNGKEYKCKVSNKALPAPIEKTISKAKGQPREPQVCTLPPSRDELTKNQVSLWCLVKGFYPSDIAVEWESNGQPENNYKTTPPVLDSDGSFFLYSKLTVDKSRWQQGNVFSCSVMHEALHNRYTQKSLSLSP light: DIVMTQSPLSLPVTPGEPASISCRSSQSLVHSNRNTYLHWYQQKPGQAPRLLIYKVSNRFSGVPDRFSGSGSGTDFTLKISRVEAEDVGVYYCGQGTQVPYTFGQGTKLEIKRTVAAPSVFIFPPSDEQLKSGTASVVCLLNNFYPREAKVQWKVDNALQSGNSQESVTEQDSKDSTYSLSSTLTLSKADYEKHKVYACEVTHQGLSSPVTKSFNRGEC

From US20240270846A1 (published 2024)
